Measurements from patent publication US20190381186A1 (TRUSTEES OF BOSTON UNIVERSITY, published 2019).

B1: receiving peptide MK(LKKIKSV)4VGER (peptide)
peptide: MKLKKIKSVLKKIKSVLKKIKSVLKKIKSVVGER
notes: With the docking peptide it is said to form a tetramer of two peptides of each type; also called V/K peptide

Tests used:
[1] = biological target: B1; assay: isothermal titration calorimetry (FIG. 2C); ITC, docking peptide with receiving peptide (FIG. 2C)
[2] = biological target: the molecule itself; assay: circular dichroism spectra, 200-260 nm

With MKLEEIVSELEEIVSELEEIVTELEEIVSEVGER (also called V/E peptide) [docking peptide MK(LEEIVSE)2LEEIVTELEEIVSEVGER] the Kd [1] was 62 nM and the binding result [2] was “no binding (tested: 100 µM)”.

B1: no binding (tested: 100 µM) [2].
